B1: Octaprenyl diphosphate synthase (Escherichia coli (strain K12)), P0AD57 (parent)
chain: MNLEKINELTAQDMAGVNAAILEQLNSDVQLINQLGYYIVSGGGKRIRPMIAVLAARAVGYEGNAHVTIAALIEFIHTATLLHDDVVDESDMRRGKATANAAFGNAASVLVGDFIYTRAFQMMTSLGSLKVLEVMSEAVNVIAEGEVLQLMNVNDPDITEENYMRVIYSKTARLFEAAAQCSGILAGCTPEEEKGLQDYGRYLGTAFQLIDDLLDYNADGEQLGKNVGDDLNEGKPTLPLLHAMHHGTPEQAQMIRTAIEQGNGRHLLEPVLEAMNACGSLEWTRQRAEEEADKAIAALQVLPDTPWREALIGLAHIAVQRDR
partner: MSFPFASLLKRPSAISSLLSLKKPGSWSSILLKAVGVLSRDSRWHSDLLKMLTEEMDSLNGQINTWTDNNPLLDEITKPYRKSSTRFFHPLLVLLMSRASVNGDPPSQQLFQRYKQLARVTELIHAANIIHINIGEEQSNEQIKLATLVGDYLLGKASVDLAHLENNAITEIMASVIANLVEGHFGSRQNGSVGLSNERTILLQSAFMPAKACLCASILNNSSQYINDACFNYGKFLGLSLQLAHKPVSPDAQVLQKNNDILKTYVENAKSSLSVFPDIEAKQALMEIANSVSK
B2: Octaprenyl diphosphate synthase (Escherichia coli (strain K12)), P0AD57 (parent)
chain: B1 chain
partner: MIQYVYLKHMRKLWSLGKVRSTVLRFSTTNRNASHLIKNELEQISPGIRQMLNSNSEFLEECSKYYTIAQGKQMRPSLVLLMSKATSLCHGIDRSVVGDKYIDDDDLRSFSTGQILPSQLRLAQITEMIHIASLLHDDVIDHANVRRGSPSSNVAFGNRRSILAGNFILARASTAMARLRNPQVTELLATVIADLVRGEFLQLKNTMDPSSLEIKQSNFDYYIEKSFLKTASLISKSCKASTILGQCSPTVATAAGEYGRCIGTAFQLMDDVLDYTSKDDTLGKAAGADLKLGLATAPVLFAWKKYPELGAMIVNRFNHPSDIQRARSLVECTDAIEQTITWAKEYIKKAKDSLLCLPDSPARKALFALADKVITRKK

Results on two variants are retold here after IntAct's records for PubMed 20051244.

The first test covers variants of B1. The note with it: with dlp1_schpo dlp1, O13851.
In the case of MNLEKINELTAQDMAGVNAAILEQLNSDVQLINQLGYYIVSGGGKRIRPMIAVLAARAVGYEGNAHVTIAALIEFIHTATLLHDDVVDESDMRRGKATANAAFGNAASVLVGDFIYTRAFQMMTSLGSLKVLEVMSEAVNVIAEGEVLQLMNVNDPDITEENYMRVIYSKTARLFEAAAQCSGILAGCTPEEEKGLQDYGRYLGTAFQLIDDLLDYNADGEQLGKNVGDDLNEGKPTLPLLHAMHHGTPEQAQMIRTAIEQGNGRHLLEPVLEAMNACGSLEWTRQRAEEEADKAIAALQVLPDTPWREALIGLAHIAVQADR [R321A], the “effect of a mutation on the interaction” value is on record as “decreasing interaction”.

In another test the parent is B2. Conditions: with dps1_schpo dps1, O43091.
As for MNLEKINELTAQDMAGVNAAILEQLNSDVQLINQLGYYIVSGGGKRIRPMIAVLAARAVGYEGNAHVTIAALIEFIHTATLLHDDVVDESDMRRGKATANAAFGNAASVLVGDFIYTRAFQMMTSLGSLKVLEVMSEAVNVIAEGEVLQLMNVNDPDITEENYMRVIYSKTARLFEAAAQCSGILAGCTPEEEKGLQDYGRYLGTAFQLIDDLLDYNADGEQLGKNVGDDLNEGKPTLPLLHAMHHGTPEQAQMIRTAIEQGNGRHLLEPVLEAMNACGSLEWTRQRAEEEADKAIAALQVLPDTPWREALIGLAHIAVQADR [R321A], the “effect of a mutation on the interaction” value is on record as “increasing interaction”.
